Measurements reported in the supplement of paper PMC6757056.
± gives the standard deviation of the averaged measurements.

B1: library; a variant is named by its letters at N, in order (parent)
chain: GCUGUCACCGGUGUAUUACCCUAGUGGUCGACCGGUCUGAUGAGUCUNNNNNNAGACGAAACAGC

Key:
[1] = variants of: B1; experiment: normalized RNA/DNA level with ligand (relative to sTRSVctl = 100) (log10 (% of sTRSVctl)); ligand: hypoxanthine (xanthine aptamer); higher = less ribozyme self-cleavage, higher mRNA level; conditions: ligand concentration (+) RNA-Seq: 5 mM, HEK293T, reporter: mCherry (pCS4076), ligand present: yes
Summary of the method: (§1)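 For each 6-well well, 4 µg of library plasmid encoding mCherry-linked ribozyme switches, or eGFP-linked ones in some ligand experiments, was transfected into HEK293T. Any ligand was added 1 h before transfection, and RNA was extracted with EDTA 72 h after it, then reverse-transcribed, amplified, barcoded and sequenced. RNA level was obtained by dividing RNA reads by DNA reads, normalizing to a spiked-in non-cleaving sequence or to the top sequences, then scaling and log-transforming. The top set was 25 sequences, scaling was ×100 with log10, and ≥100 DNA reads were required.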

[2] = variants of: B1; experiment: normalized RNA/DNA level without ligand (relative to sTRSVctl = 100) (log10 (% of sTRSVctl)); ligand: hypoxanthine (xanthine aptamer); higher = less ribozyme self-cleavage, higher mRNA level; conditions: HEK293T, reporter: mCherry (pCS4076), ligand present: no
Summary of the method: as §1

Variant	normalized RNA/DNA level with ligand (log10) [1]	normalized RNA/DNA level without ligand (log10) [2]
GCUGUCACCGGUGUAUUACCCUAGUGGUCGACCGGUCUGAUGAGUCUUACGACAGACGAAACAGC [UACGAC]	1.9194 ± 0.00024	1.804 ± 0.0045
GCUGUCACCGGUGUAUUACCCUAGUGGUCGACCGGUCUGAUGAGUCUCUAAUUAGACGAAACAGC [CUAAUU]	1.94 ± 0.043	1.869 ± 0.006
GCUGUCACCGGUGUAUUACCCUAGUGGUCGACCGGUCUGAUGAGUCUUAGCCGAGACGAAACAGC [UAGCCG]	1.982 ± 0.016	1.728 ± 0.0043
GCUGUCACCGGUGUAUUACCCUAGUGGUCGACCGGUCUGAUGAGUCUCUCGCUAGACGAAACAGC [CUCGCU]	1.95 ± 0.043	1.924 ± 0.014
GCUGUCACCGGUGUAUUACCCUAGUGGUCGACCGGUCUGAUGAGUCUUGCUGGAGACGAAACAGC [UGCUGG]	1.95 ± 0.04	1.707 ± 0.011
GCUGUCACCGGUGUAUUACCCUAGUGGUCGACCGGUCUGAUGAGUCUGGUCCUAGACGAAACAGC [GGUCCU]	1.941 ± 0.017	1.96 ± 0.061
GCUGUCACCGGUGUAUUACCCUAGUGGUCGACCGGUCUGAUGAGUCUCCGCCAAGACGAAACAGC [CCGCCA]	1.97 ± 0.045	1.94 ± 0.053
GCUGUCACCGGUGUAUUACCCUAGUGGUCGACCGGUCUGAUGAGUCUCUCAAUAGACGAAACAGC [CUCAAU]	1.92 ± 0.036	1.792 ± 0.0044
GCUGUCACCGGUGUAUUACCCUAGUGGUCGACCGGUCUGAUGAGUCUUGUAUCAGACGAAACAGC [UGUAUC]	1.94 ± 0.052	1.92 ± 0.013
GCUGUCACCGGUGUAUUACCCUAGUGGUCGACCGGUCUGAUGAGUCUCCUCGUAGACGAAACAGC [CCUCGU]	1.98 ± 0.026	1.87 ± 0.031
GCUGUCACCGGUGUAUUACCCUAGUGGUCGACCGGUCUGAUGAGUCUUAGACCAGACGAAACAGC [UAGACC]	1.976 ± 0.016	1.92 ± 0.0073
GCUGUCACCGGUGUAUUACCCUAGUGGUCGACCGGUCUGAUGAGUCUGGCUGGAGACGAAACAGC [GGCUGG]	1.9543 ± 0.0009	1.66 ± 0.048
GCUGUCACCGGUGUAUUACCCUAGUGGUCGACCGGUCUGAUGAGUCUCCGUUGAGACGAAACAGC [CCGUUG]	1.88 ± 0.045	1.589 ± 0.0096
GCUGUCACCGGUGUAUUACCCUAGUGGUCGACCGGUCUGAUGAGUCUUGAUGUAGACGAAACAGC [UGAUGU]	1.91 ± 0.02	1.67 ± 0.022
GCUGUCACCGGUGUAUUACCCUAGUGGUCGACCGGUCUGAUGAGUCUGCUCUUAGACGAAACAGC [GCUCUU]	1.97 ± 0.052	1.91 ± 0.037
GCUGUCACCGGUGUAUUACCCUAGUGGUCGACCGGUCUGAUGAGUCUAGACCGAGACGAAACAGC [AGACCG]	1.925 ± 0.004	1.75 ± 0.067
GCUGUCACCGGUGUAUUACCCUAGUGGUCGACCGGUCUGAUGAGUCUUAGUUCAGACGAAACAGC [UAGUUC]	1.943 ± 0.0072	1.87 ± 0.008
GCUGUCACCGGUGUAUUACCCUAGUGGUCGACCGGUCUGAUGAGUCUUGCGCAAGACGAAACAGC [UGCGCA]	1.94 ± 0.034	1.82 ± 0.052
GCUGUCACCGGUGUAUUACCCUAGUGGUCGACCGGUCUGAUGAGUCUGUACACAGACGAAACAGC [GUACAC]	1.919 ± 0.0031	1.79 ± 0.041
GCUGUCACCGGUGUAUUACCCUAGUGGUCGACCGGUCUGAUGAGUCUUCCGCCAGACGAAACAGC [UCCGCC]	1.992 ± 0.013	1.773 ± 0.015
GCUGUCACCGGUGUAUUACCCUAGUGGUCGACCGGUCUGAUGAGUCUUCCGCAAGACGAAACAGC [UCCGCA]	1.9294 ± 0.00025	1.807 ± 0.014

Variant	normalized RNA/DNA level with ligand (log10) [1]	normalized RNA/DNA level without ligand (log10) [2]
GCUGUCACCGGUGUAUUACCCUAGUGGUCGACCGGUCUGAUGAGUCUAUUUCAAGACGAAACAGC [AUUUCA]	1.87 ± 0.04	1.829 ± 0.017
GCUGUCACCGGUGUAUUACCCUAGUGGUCGACCGGUCUGAUGAGUCUCAGAGCAGACGAAACAGC [CAGAGC]	1.926 ± 0.019	1.74 ± 0.022
GCUGUCACCGGUGUAUUACCCUAGUGGUCGACCGGUCUGAUGAGUCUAUGUGCAGACGAAACAGC [AUGUGC]	1.853 ± 0.018	1.667 ± 0.0026
GCUGUCACCGGUGUAUUACCCUAGUGGUCGACCGGUCUGAUGAGUCUCCCCUUAGACGAAACAGC [CCCCUU]	2 ± 0.045	1.913 ± 0.014
GCUGUCACCGGUGUAUUACCCUAGUGGUCGACCGGUCUGAUGAGUCUGGUUCCAGACGAAACAGC [GGUUCC]	1.99 ± 0.081	1.95 ± 0.022
GCUGUCACCGGUGUAUUACCCUAGUGGUCGACCGGUCUGAUGAGUCUACAGCCAGACGAAACAGC [ACAGCC]	1.97 ± 0.021	1.919 ± 0.01
GCUGUCACCGGUGUAUUACCCUAGUGGUCGACCGGUCUGAUGAGUCUCUAUGCAGACGAAACAGC [CUAUGC]	1.99 ± 0.044	1.88 ± 0.076
GCUGUCACCGGUGUAUUACCCUAGUGGUCGACCGGUCUGAUGAGUCUCAGCGAAGACGAAACAGC [CAGCGA]	1.94 ± 0.027	1.79 ± 0.035
GCUGUCACCGGUGUAUUACCCUAGUGGUCGACCGGUCUGAUGAGUCUAUCUGUAGACGAAACAGC [AUCUGU]	1.91 ± 0.026	1.787 ± 0.014
GCUGUCACCGGUGUAUUACCCUAGUGGUCGACCGGUCUGAUGAGUCUGCGCUUAGACGAAACAGC [GCGCUU]	1.96 ± 0.065	1.76 ± 0.046
GCUGUCACCGGUGUAUUACCCUAGUGGUCGACCGGUCUGAUGAGUCUUCAAUUAGACGAAACAGC [UCAAUU]	1.96 ± 0.0097	1.89 ± 0.023
GCUGUCACCGGUGUAUUACCCUAGUGGUCGACCGGUCUGAUGAGUCUAUCACCAGACGAAACAGC [AUCACC]	1.98 ± 0.029	1.953 ± 0.011
GCUGUCACCGGUGUAUUACCCUAGUGGUCGACCGGUCUGAUGAGUCUGUCGUUAGACGAAACAGC [GUCGUU]	1.97 ± 0.057	1.89 ± 0.032
GCUGUCACCGGUGUAUUACCCUAGUGGUCGACCGGUCUGAUGAGUCUACGCCGAGACGAAACAGC [ACGCCG]	1.873 ± 0.011	1.4 ± 0.032
GCUGUCACCGGUGUAUUACCCUAGUGGUCGACCGGUCUGAUGAGUCUCCAGCAAGACGAAACAGC [CCAGCA]	1.966 ± 0.019	1.87 ± 0.043
GCUGUCACCGGUGUAUUACCCUAGUGGUCGACCGGUCUGAUGAGUCUUCCCCCAGACGAAACAGC [UCCCCC]	1.9 ± 0.075	1.782 ± 0.016
GCUGUCACCGGUGUAUUACCCUAGUGGUCGACCGGUCUGAUGAGUCUUUGGGGAGACGAAACAGC [UUGGGG]	1.91 ± 0.047	1.82 ± 0.042
GCUGUCACCGGUGUAUUACCCUAGUGGUCGACCGGUCUGAUGAGUCUCCAUUGAGACGAAACAGC [CCAUUG]	1.9 ± 0.056	1.8 ± 0.022
GCUGUCACCGGUGUAUUACCCUAGUGGUCGACCGGUCUGAUGAGUCUUUGGCAAGACGAAACAGC [UUGGCA]	1.966 ± 0.0098	1.907 ± 0.018
GCUGUCACCGGUGUAUUACCCUAGUGGUCGACCGGUCUGAUGAGUCUCUCUGAAGACGAAACAGC [CUCUGA]	1.96 ± 0.047	1.944 ± 0.009
GCUGUCACCGGUGUAUUACCCUAGUGGUCGACCGGUCUGAUGAGUCUCGGAUGAGACGAAACAGC [CGGAUG]	1.993 ± 0.011	1.75 ± 0.028
